Results from patent US20240262922A1 (Merck KGaA, published 2024).
Read-outs that look alike come from different tables or passages of the source.

Experiments:
[1] = molecular target: T1, recombinant cynomolgus monkey OX40L (Novoprotein cat. #CP72) (cynomolgus monkey, UniProt P23510 51-183 (human entry), limits assumed); assay: flow cytometry on CHO-S-OX40L cells / ELISA on recombinant OX40L (sentence does not say which)
T1 construct: Bought protein; also called cynomolgus OX40L
T1 chain: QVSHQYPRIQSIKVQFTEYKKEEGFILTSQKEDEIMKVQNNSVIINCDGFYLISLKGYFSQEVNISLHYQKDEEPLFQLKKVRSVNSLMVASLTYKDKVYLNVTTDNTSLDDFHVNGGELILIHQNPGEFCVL

mouse OX40L = molecular target: T2, mouse OX40L (mouse, UniProt P43488 51-198, limits assumed); assay: flow cytometry on CHO-S cells / ELISA on recombinant protein (sentence does not say which)
T2 sequence: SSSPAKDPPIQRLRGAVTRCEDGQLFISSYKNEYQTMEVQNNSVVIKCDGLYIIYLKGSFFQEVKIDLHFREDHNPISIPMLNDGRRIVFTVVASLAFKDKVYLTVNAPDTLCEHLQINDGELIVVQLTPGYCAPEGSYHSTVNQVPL

[2] = molecular target: T3, recombinant human OX40L protein (R&D Systems, cat. #1054-OX) (human, UniProt P23510 51-183); assay: SPR steady state, Biacore T200; OX40L immobilised on CM5, antibody in solution
T3 construct: Bought soluble recombinant protein; also called rhOX40L; recombinant soluble OX40L
T3 sequence: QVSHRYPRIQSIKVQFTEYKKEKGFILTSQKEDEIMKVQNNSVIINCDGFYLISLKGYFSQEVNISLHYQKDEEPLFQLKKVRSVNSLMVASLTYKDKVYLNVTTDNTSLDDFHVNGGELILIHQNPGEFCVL
Description: (§1) Recombinant OX40L proteins (human OX40L protein, R&D systems, cat. #1054-OX; cynomolgus monkey OX40L, Novoprotein cat. #CP72) were immobilized onto Biacore CM5 sensor chips and anti-OX40L antibodies were bound to this surface at a range of concentrations. The response at steady state was measured with a Biacore T200 instrument (GE Healthcare) and plotted against the concentration of antibody and fit to a 1:1 binding model. The steady state KD was determined as the antibody concentration at a response equal to half the maximal response (Rₘₐₓ).
Steady state affinity assay was performed as described in section 1.1.7 of Example 1.

[3] = molecular target: T3, recombinant human OX40L protein (R&D …); assay: cell-based or functional assay
AVI-GST-His6-hOX40L [4] = molecular target: T4, AVI-GST-His6-hOX40L (human, UniProt P23510 51-183); assay: cell-based or functional assay
T4 sequence: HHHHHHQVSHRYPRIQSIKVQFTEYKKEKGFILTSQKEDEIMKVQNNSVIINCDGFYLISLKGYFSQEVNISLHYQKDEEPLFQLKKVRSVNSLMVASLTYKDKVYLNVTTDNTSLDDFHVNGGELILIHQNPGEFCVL

[5] = molecular target: T3, recombinant human OX40L protein (R&D …); assay: SPR steady state affinity to human OX40L
Description: as §1

AVI-GST-His6-hOX40L [6] = molecular target: T4, AVI-GST-His6-hOX40L; assay: cell-based or functional assay; remark: listed apart in the source
[7] = molecular target: T3, recombinant human OX40L protein (R&D …); assay: cell-based or functional assay; remark: listed apart in the source
AVI-GST-His6-hOX40L [8] = molecular target: T4, AVI-GST-His6-hOX40L; assay: cell-based or functional assay; remark: listed apart in the source
[9] = molecular target: T3, recombinant human OX40L protein (R&D …); assay: SPR steady state, Biacore T200; OX40L immobilised on CM5, antibody in solution; remark: listed apart in the source
Description: as §1

AVI-GST-His6-hOX40L [10] = molecular target: T4, AVI-GST-His6-hOX40L; assay: cell-based or functional assay; remark: listed apart in the source
AVI-GST-His6-hOX40L [11] = molecular target: T4, AVI-GST-His6-hOX40L; assay: cell-based or functional assay; remark: listed apart in the source
[12] = molecular target: T3, recombinant human OX40L protein (R&D …); assay: cell-based or functional assay; remark: listed apart in the source
AVI-GST-His6-hOX40L [13] = molecular target: T4, AVI-GST-His6-hOX40L; assay: cell-based or functional assay; remark: listed apart in the source
[14] = molecular target: T3, recombinant human OX40L protein (R&D …); assay: SPR steady state, Biacore T200; OX40L immobilised on CM5, FcFab in solution
Description: as §1
As with the IgG clones, binding affinity to human OX40L was determined for all twelve FcFabs using steady state affinity assay as described in section 1.1.7 of Example 1. […]

| Binder | binding result [1] | binding result (mouse OX40L) | Kd [2] | Primary T cell activation assay IC50 [3] | OX40L neutralization/OX40-HEK Reporter IC50 (AVI-GST-His6-hOX40L [4]) | Kd [5] | IC50 (read off the curve) (AVI-GST-His6-hOX40L [6]) | Primary T cell activation assay IC50 [7] | OX40L neutralization/OX40-HEK Reporter IC50 (AVI-GST-His6-hOX40L [8]) | Kd [9] | IC50 (read off the curve) (AVI-GST-His6-hOX40L [10]) | IC50 (read off the curve) (AVI-GST-His6-hOX40L [11]) | Primary T cell activation assay IC50 [12] | OX40L neutralization/OX40-HEK Reporter IC50 (AVI-GST-His6-hOX40L [13]) | Kd [14] |
| --- | --- | --- | --- | --- | --- | --- | --- | --- | --- | --- | --- | --- | --- | --- | --- |
| 95B06 (IgG) (antibody) heavy: not shown light: DMQMTQSPSSLSASVGDRVTITCRASQGIRNDLDWYQQKPGKVPKRLIHAASSLQSGVPSRFSGSGSGTEFTLTISSLQPEDFVTYYCLQHNTYPWTFGQGTKLEIKRTVAAPSVFIFPPSDEQLKSGTASVVCLLNNFYPREAKVQWKVDNALQSGNSQESVTEQDSKDSTYSLSSTLTLSKADYEKHKVYACEVTHQGLSSPVTKSFNRGEC | binds | no binding | 42.4 nM | 7.4 nM | 3.7 nM | – | – | – | – | – | – | – | – | – | – |
| 88B06 (IgG) (antibody) heavy: not shown light: SYELTQPLSVSVALGQTARISCGGNNIGRKNVHWYQQKPGQAPVLVIYGDSNRPSGIPERFSGSNSGNTATLTIGRAQAGDEADYYCQVWDSSTVFGGGTKLTVLGQPKAAPSVTLFPPSSEELQANKATLVCLISDFYPGAVTVAWKADSSPVKAGVETTTPSKQSNNKYAASSYLSLTPEQWKSHKSYSCQVTHEGSTVEKTVAPTECS | binds | no binding | 23.2 nM | 28.5 nM | 18.9 nM | – | – | – | – | – | – | – | – | – | – |
| Ref1_Anti-OX40L (US Pat. No. 9,139,653) (antibody, V domains shown) VH: EVQLVESGGGLVQPGGSLRLSCAASGFTFSNYAMNWVRQAPGKGLEWVSTISGSGGATRYADSVKGRFTISRDNSRNTVYLQMNSLRVEDTAVFYCTKDRLIMATVRGPYYYGMDVWGQGTTVTVSS VL: DIQMTQSPSSLSASVGDRVTITCRASQSISSYLNWYQQKPGKAPNLLIYAASSLQSGVPSRFSGSGSETDFTLTISSLQPEDFATYYCQQSHSVSFTFGPGTKVDIK | – | – | – | – | – | 31.9 nM | ~5 nM | 5.7 nM | 7.3 nM | 31.9 nM | – | – | – | – | – |
| 97G07 (IgG) (antibody) heavy: not shown light: YYELTQPLSVSVALGQTARIPCGGNNIENKNVHWYQQKPGQAPVLVIYRDSNRPSGIPERFSGSNSGNTATLSINRAQAGDEADYYCQVWDSNTVIFGGGTKVTVLGQPKAAPSVTLFPPSSEELQANKATLVCLISDFYPGAVTVAWKADSSPVKAGVETTTPSKQSNNKYAASSYLSLTPEQWKSHKSYSCQVTHEGSTVEKTVAPTECS | binds | no binding | 16.6 nM | 16.7 nM | 7.5 nM | – | – | – | – | – | ~9 nM | – | – | – | – |
| 97G07 (FcFab) (antibody, IgG1, also called 97G07(2); anti-OX40L FcFab antibody 97G07) heavy: EPKSSDKTHTCPPCPAPPVAGPSVFLFPPKPKDTLMISRTPEVTCVVVDVSHEDPEVKFNWYVDGVEVHNAKTKPREEQYNSTYRVVSVLTVLHQDWLNGKEYKCAVSNKALPSSIEKTISKAKGQPREPQVYTLPPSREEMTKNQVSLTCLVKGFYPSDIAVEWESNGQPENNYKTTPPVLDSDGSFFLYSKLTVDKSRWQQGNVFSCSVMHEALHNHYTQKSLSLSPGAGGGGSGGGGSGGGGSQLQLQESGPGLVKPSETLSLTCTVSGGSISSSSYYWGWIRQPPGKGLEWIGGIGSVDYSGNTYYKPSLKSRVTISVDTSKNQFSLKLSTVTAADTAVYHCARHRGIYFFDYWGQGTLVTVSSASTKGPSVFPLAPSSKSTSGGTAALGCLVKDYFPEPVTVSWNSGALTSGVHTFPAVLQSSGLYSLSSVVTVPSSSLGTQTYICNVNHKPSNTKVDKRVEPKSC light: YYELTQPLSVSVALGQTARIPCGGNNIENKNVHWYQQKPGQAPVLVIYRDSNRPSGIPERFSGSNSGNTATLSINRAQAGDEADYYCQVWDSNTVIFGGGTKVTVLGQPKAAPSVTLFPPSSEELQANKATLVCLISDFYPGAVTVAWKADSSPVKAGVETTTPSKQSNNKYAASSYLSLTPEQWKSHKSYSCQVTHEGSTVEKTVAPTECS | – | – | – | – | – | – | – | – | – | – | – | ~6 nM | 4.6 nM | 6.2 nM | 27.9 nM |
| Ref2_Anti_OX40L (antibody, human IgG1, kappa, V domains shown) VH: EVQLLESGGGLVQPGGSLRLSCAASGFTFNSYAMSWVRQAPGKGLEWVSIISGSGGFTYYADSVKGRFTISRDNSRTTLYLQMNSLRAEDTAVYYCAKDRLVAPGTFDYWGQGALVTVSS VL: DIQMTQSPSSLSASVGDRVTITCRASQGISSWLAWYQQKPEKAPKSLIYAASSLQSGVPSRFSGSGSGTDFTLTISSLQPEDFATYYCQQYNSYPYTFGQGTKLEIKR | – | – | – | – | – | 15 nM | ~4 nM | 9.3 nM | 6.6 nM | 15 nM | ~3 nM | ~6 nM | – | – | – |
| 67B06 (IgG) (antibody, also called 67B06 (IgG format)) heavy: not shown light: SYELTQPLSVSVALGQTARMTCGGSDIENKNVHWYQQKPGQAPVLVIHRDNNRPSGIPERFSGSNSGNTATLTISRAQAGDEADYYCQVRDSNIVVFGGGTKLTVLGQPKAAPSVTLFPPSSEELQANKATLVCLISDFYPGAVTVAWKADSSPVKAGVETTTPSKQSNNKYAASSYLSLTPEQWKSHKSYSCQVTHEGSTVEKTVAPTECS | binds | no binding | 12.7 nM | 20.9 nM | 5.2 nM | – | – | – | – | – | ~5 nM | – | – | – | – |
| 67B06 (FcFab) (antibody) heavy: EPKSSDKTHTCPPCPAPPVAGPSVFLFPPKPKDTLMISRTPEVTCVVVDVSHEDPEVKFNWYVDGVEVHNAKTKPREEQYNSTYRVVSVLTVLHQDWLNGKEYKCAVSNKALPSSIEKTISKAKGQPREPQVYTLPPSREEMTKNQVSLTCLVKGFYPSDIAVEWESNGQPENNYKTTPPVLDSDGSFFLYSKLTVDKSRWQQGNVFSCSVMHEALHNHYTQKSLSLSPGAGGGGSGGGGSGGGGSQLQLQESGPGLVKPSETLSLTCSVSGGSISTSSYYWGWIRQPPGKGLEWSGSIYYSGSTYYRPSLQGRATISVDTSKNQFSLKLTSVTAADTAVYYCARHRGSYFFDIWGLGTLVTVSSASTKGPSVFPLAPSSKSTSGGTAALGCLVKDYFPEPVTVSWNSGALTSGVHTFPAVLQSSGLYSLSSVVTVPSSSLGTQTYICNVNHKPSNTKVDKRVEPKSC light: SYELTQPLSVSVALGQTARMTCGGSDIENKNVHWYQQKPGQAPVLVIHRDNNRPSGIPERFSGSNSGNTATLTISRAQAGDEADYYCQVRDSNIVVFGGGTKLTVLGQPKAAPSVTLFPPSSEELQANKATLVCLISDFYPGAVTVAWKADSSPVKAGVETTTPSKQSNNKYAASSYLSLTPEQWKSHKSYSCQVTHEGSTVEKTVAPTECS | – | – | – | – | – | – | – | – | – | – | – | ~6 nM | 7.2 nM | 5.5 nM | 20.3 nM |
